± gives the uncertainty stated by the source.
Assay: self-splicing fitness, log relative to wild type (ln ratio); higher = more splicing; Tetrahymena group I intron in knt gene, E. coli kanamycin selection, DiMSum; sequences stand for … in CUCUCU…GGAGGGAAAAGUUAUCAGGCAUGCACCUGGUAGCUAGUCUUUAAACCAAUAGAUUGCAUCGGUUUAAAAGGCAAGACCGUCAAAUUGCGGGAAAGGGGUCAACAGCCGUUCAGUACCAAGUCUCAGGGGAAACUUUGAGAUGGCCUUGCAAAGGGUAUGGUAAUAAGCUGACGGACAUGGUCCUAACCACGCAGCCAAGUCCUAAGUCAACAGAUCUUCUGUUGAUAUGGAUGCAGUUCACAGACUAAAUGUCGGUCGGGGAAGAUGUAUUCUUCUCAUAAGAUAUAGUCGGACCUCUCCUUAAUGGGAGCUAGCGGAUGAAGUGAUGCAACACUGGAGCCGCUGGGAACUAAUUUGUAUGCGAAAGUAUAUUGAUUAGUUUUGGAGUACUCGUGGUCG
Method in brief: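 Library with all eight P1ex-region intron nucleotides randomised, intron inside the knt kanamycin-resistance gene on pET-22b(+), in E. coli BL21(DE3). Cells grew overnight at 37°C or 30°C on LB agar with or without 25 μg/mL kanamycin (plus 100 μg/mL carbenicillin, 50 μM IPTG, 0.2% rhamnose), in six replicate transformations. Pooled colonies were amplicon-sequenced on Illumina HiSeq 2500. DiMSum fitness is the error-weighted combination of wild-type-normalised replicate fold changes, kanamycin versus none.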

In the case of ACUGAGCAAUAUUACGACGA, the “self-splicing fitness (ln)” value (30 °C) is reported as -1.3 ± 0.13 and the “self-splicing fitness (ln)” value (37 °C) is reported as -0.569 ± 0.12.
With CCCUAGCAAUAUUACGACGU the “self-splicing fitness (ln)” value (30 °C) was -3.83 ± 0.29 and the “self-splicing fitness (ln)” value (37 °C) was -3.29 ± 0.47.
In the case of AACAAGCAAUAUUACGCCGA, the “self-splicing fitness (ln)” value (30 °C) is reported as -1.45 ± 0.12 and the “self-splicing fitness (ln)” value (37 °C) is reported as -1.27 ± 0.12.
With AUAGAGCAAUAUUACGAUAC the “self-splicing fitness (ln)” value (30 °C) was -0.998 ± 0.12 and the “self-splicing fitness (ln)” value (37 °C) was -0.0688 ± 0.19.
With ACUUAGCAAUAUUACGGUAC the “self-splicing fitness (ln)” value (30 °C) was -3.36 ± 0.21 and the “self-splicing fitness (ln)” value (37 °C) was -3.57 ± 0.42.
With GCGUAGCAAUAUUACGCUAU the “self-splicing fitness (ln)” value (30 °C) was -4.42 ± 0.42 and the “self-splicing fitness (ln)” value (37 °C) was -2.46 ± 0.45.
For AUCGAGCAAUAUUACGCGCA, the “self-splicing fitness (ln)” value (30 °C) was -1.59 ± 0.17 and the “self-splicing fitness (ln)” value (37 °C) was -0.0318 ± 0.17.
In the case of ACUUAGCAAUAUUACGAGUU, the “self-splicing fitness (ln)” value (30 °C) is reported as -2.42 ± 0.12 and the “self-splicing fitness (ln)” value (37 °C) is reported as -0.552 ± 0.14.
In the case of GCGAAGCAAUAUUACGUAAC, the “self-splicing fitness (ln)” value (30 °C) is reported as -2.64 ± 0.14 and the “self-splicing fitness (ln)” value (37 °C) is reported as -1.44 ± 0.16.
In the case of CCUAAGCAAUAUUACGGAGA, the “self-splicing fitness (ln)” value (37 °C) is reported as -1.46 ± 0.22.
With UACCAGCAAUAUUACGGAUA the “self-splicing fitness (ln)” value (30 °C) was -1.12 ± 0.077 and the “self-splicing fitness (ln)” value (37 °C) was -0.394 ± 0.078.
With UCGAAGCAAUAUUACGGACC the “self-splicing fitness (ln)” value (30 °C) was -3.46 ± 0.33 and the “self-splicing fitness (ln)” value (37 °C) was -2.02 ± 0.34.
In the case of GGUAAGCAAUAUUACGUCUG, the “self-splicing fitness (ln)” value (30 °C) is reported as -1.85 ± 0.14 and the “self-splicing fitness (ln)” value (37 °C) is reported as -1.51 ± 0.1.
In the case of UCCGAGCAAUAUUACGGAGA, the “self-splicing fitness (ln)” value (30 °C) is reported as -1.83 ± 0.18 and the “self-splicing fitness (ln)” value (37 °C) is reported as -1.7 ± 0.27.
In the case of AUAAAGCAAUAUUACGUACA, the “self-splicing fitness (ln)” value (30 °C) is reported as -0.00533 ± 0.067 and the “self-splicing fitness (ln)” value (37 °C) is reported as 0.315 ± 0.098.
For AUCGAGCAAUAUUACGGGGU, the “self-splicing fitness (ln)” value (30 °C) was -3.4 ± 0.21 and the “self-splicing fitness (ln)” value (37 °C) was -2.52 ± 0.19.
In the case of GGAAAGCAAUAUUACGAGAA, the “self-splicing fitness (ln)” value (37 °C) is reported as -1.29 ± 0.27.
For GACAAGCAAUAUUACGCCAU, the “self-splicing fitness (ln)” value (30 °C) was -3.44 ± 0.4 and the “self-splicing fitness (ln)” value (37 °C) was -2.96 ± 0.26.
With UUCUAGCAAUAUUACGCAGU the “self-splicing fitness (ln)” value (30 °C) was -3.89 ± 0.43 and the “self-splicing fitness (ln)” value (37 °C) was -3.11 ± 0.35.
In the case of CCGUAGCAAUAUUACGCUGU, the “self-splicing fitness (ln)” value (30 °C) is reported as -3.79 ± 0.25 and the “self-splicing fitness (ln)” value (37 °C) is reported as -3.17 ± 0.26.
For UGACAGCAAUAUUACGGGGU, the “self-splicing fitness (ln)” value (30 °C) was -4.41 ± 0.31 and the “self-splicing fitness (ln)” value (37 °C) was -2.38 ± 0.23.
In the case of AGAUAGCAAUAUUACGGCAU, the “self-splicing fitness (ln)” value (30 °C) is reported as -0.734 ± 0.11 and the “self-splicing fitness (ln)” value (37 °C) is reported as 0.242 ± 0.12.
For AAUGAGCAAUAUUACGAGGU, the “self-splicing fitness (ln)” value (30 °C) was -4.31 ± 0.29 and the “self-splicing fitness (ln)” value (37 °C) was -2.49 ± 0.17.
With UAAGAGCAAUAUUACGGUGC the “self-splicing fitness (ln)” value (30 °C) was -3.43 ± 0.28.
With GUCAAGCAAUAUUACGGUUU the “self-splicing fitness (ln)” value (30 °C) was -2.48 ± 0.075 and the “self-splicing fitness (ln)” value (37 °C) was -1.44 ± 0.077.
With UGUCAGCAAUAUUACGCUCG the “self-splicing fitness (ln)” value (30 °C) was -0.552 ± 0.16 and the “self-splicing fitness (ln)” value (37 °C) was 0.987 ± 0.32.
With GUAAAGCAAUAUUACGGUGC the “self-splicing fitness (ln)” value (30 °C) was -2.22 ± 0.083 and the “self-splicing fitness (ln)” value (37 °C) was -0.36 ± 0.083.
In the case of AGGAAGCAAUAUUACGGGGG, the “self-splicing fitness (ln)” value (37 °C) is reported as -1.89 ± 0.36.
In the case of UUGUAGCAAUAUUACGGUGC, the “self-splicing fitness (ln)” value (30 °C) is reported as -2.37 ± 0.45 and the “self-splicing fitness (ln)” value (37 °C) is reported as -2.07 ± 0.34.
For UCACAGCAAUAUUACGUAUG, the “self-splicing fitness (ln)” value (30 °C) was -0.949 ± 0.063 and the “self-splicing fitness (ln)” value (37 °C) was -1.54 ± 0.099.
In the case of CCCAAGCAAUAUUACGAAAC, the “self-splicing fitness (ln)” value (30 °C) is reported as -2.72 ± 0.22 and the “self-splicing fitness (ln)” value (37 °C) is reported as -2.04 ± 0.27.
In the case of GACCAGCAAUAUUACGAGGC, the “self-splicing fitness (ln)” value (30 °C) is reported as -3.02 ± 0.13 and the “self-splicing fitness (ln)” value (37 °C) is reported as -0.778 ± 0.091.
For GUCGAGCAAUAUUACGCAAA, the “self-splicing fitness (ln)” value (30 °C) was -2.51 ± 0.39.
In the case of UUUCAGCAAUAUUACGCAUG, the “self-splicing fitness (ln)” value (30 °C) is reported as -0.765 ± 0.093 and the “self-splicing fitness (ln)” value (37 °C) is reported as -0.0959 ± 0.11.
In the case of AUACAGCAAUAUUACGCUAU, the “self-splicing fitness (ln)” value (30 °C) is reported as -3.03 ± 0.11 and the “self-splicing fitness (ln)” value (37 °C) is reported as -1.29 ± 0.087.
In the case of AGUCAGCAAUAUUACGUUAU, the “self-splicing fitness (ln)” value (30 °C) is reported as -1.25 ± 0.099 and the “self-splicing fitness (ln)” value (37 °C) is reported as -0.0312 ± 0.11.
For GUAAAGCAAUAUUACGCGAG, the “self-splicing fitness (ln)” value (30 °C) was -0.869 ± 0.068 and the “self-splicing fitness (ln)” value (37 °C) was -0.158 ± 0.091.
In the case of UGGCAGCAAUAUUACGACCG, the “self-splicing fitness (ln)” value (30 °C) is reported as -0.969 ± 0.27 and the “self-splicing fitness (ln)” value (37 °C) is reported as -0.245 ± 0.42.
For GGGAAGCAAUAUUACGUCCG, the “self-splicing fitness (ln)” value (30 °C) was -1.81 ± 0.15 and the “self-splicing fitness (ln)” value (37 °C) was -0.461 ± 0.18.
With UAAGAGCAAUAUUACGUGCA the “self-splicing fitness (ln)” value (30 °C) was -2.09 ± 0.2 and the “self-splicing fitness (ln)” value (37 °C) was -0.84 ± 0.2.
For ACUAAGCAAUAUUACGAUUA, the “self-splicing fitness (ln)” value (30 °C) was -0.928 ± 0.12 and the “self-splicing fitness (ln)” value (37 °C) was -0.502 ± 0.1.
For UGGGAGCAAUAUUACGUGUA, the “self-splicing fitness (ln)” value (37 °C) was -2.2 ± 0.26.
In the case of UACCAGCAAUAUUACGGAUU, the “self-splicing fitness (ln)” value (30 °C) is reported as -0.984 ± 0.071 and the “self-splicing fitness (ln)” value (37 °C) is reported as -0.93 ± 0.077.
For GUAAAGCAAUAUUACGGAAC, the “self-splicing fitness (ln)” value (30 °C) was -1.56 ± 0.12 and the “self-splicing fitness (ln)” value (37 °C) was -1.57 ± 0.21.
With GCGCAGCAAUAUUACGUGUA the “self-splicing fitness (ln)” value (30 °C) was -0.699 ± 0.071 and the “self-splicing fitness (ln)” value (37 °C) was -0.0774 ± 0.077.
With CUGCAGCAAUAUUACGGCGC the “self-splicing fitness (ln)” value (30 °C) was -3.82 ± 0.3 and the “self-splicing fitness (ln)” value (37 °C) was -2.75 ± 0.4.
In the case of CCUUAGCAAUAUUACGGUUU, the “self-splicing fitness (ln)” value (30 °C) is reported as -4.06 ± 0.16 and the “self-splicing fitness (ln)” value (37 °C) is reported as -2.42 ± 0.14.
With GGUGAGCAAUAUUACGACUA the “self-splicing fitness (ln)” value (30 °C) was -0.202 ± 0.17 and the “self-splicing fitness (ln)” value (37 °C) was -0.327 ± 0.17.
With UGGAAGCAAUAUUACGUGGC the “self-splicing fitness (ln)” value (30 °C) was -3.41 ± 0.25 and the “self-splicing fitness (ln)” value (37 °C) was -2.71 ± 0.33.
In the case of AGUCAGCAAUAUUACGUCCG, the “self-splicing fitness (ln)” value (30 °C) is reported as -2.14 ± 0.12 and the “self-splicing fitness (ln)” value (37 °C) is reported as -1.29 ± 0.18.

Reference: the supplement of paper PMC7877785
